For the test, the target named is human CCR8 (human) (UniProt P51685). In words: cell-based or functional assay.

A value given as a limit tells only on which side of the number the result lay.

The values that follow come from patent US20230049152A1.

Take “murine anti-human CCR8 mAb L263G8 (Biolegend) (antibody)”: the ADCC reporter EC50, mFcgRIV Jurkat cells with CHO/hCCR8 (FIG. 11D) is 0.00028 µM; the CCL1 blocking potency IC50, Ca2+ influx is 0.0236 µM; the induction fold at about 1 nM antibody, mFcgRIV Jurkat NFAT-luciferase reporter was greater than 10 fold; the induction fold plateau at about 40 nM antibody, mFcgRIV Jurkat NFAT-luciferase reporter is 11 fold.
